Experimental data published in the supplement of paper PMC10567573.

B1: BRF1 (parent)
chain: CTACGSVLEDNIIVSEVQFVESSG

Variants of: B1
Assay: protein stability index of a GFP-peptide fusion (GPS, HEK-293T) (PSI 1-6); higher = more stable
Conditions: c terminus: a fixed tail appended
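Further: lentivirally expressed fusions sorted by FACS into six bins by GFP to DsRed ratio, PSI derived from sequencing read proportions per bin multiplied by bin number.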

Protein stability index, by site and new letter:
V17: M 2.37 | F 2.56 | L 2.29 | H 4.4 | I 1.92 | R 3.83 | D 3.87 | T 4.09 | K 4.41 | C 3.48 | G 4.45 | N 3.56 | A 4.27 | E 3.88 | S 4.35 | P 3.71 | W 2.1 | Y 2.87 | Q 4.07
I12: N 4.8 | Y 3.15 | W 2.39 | E 4 | F 2.23 | H 3.41 | S 3.95 | M 3.13 | R 4.29 | K 4.16 | T 3.88 | A 3.77 | D 3.08 | C 3.53 | G 3.73 | Q 4.35 | V 2.99 | P 3.55 | L 3.06
N11: Y 2.06 | F 1.89 | H 2.12 | L 2.98 | T 2.44 | C 1.74 | W 1.01 | K 4.01 | I 1.14 | A 1.54 | S 2.42 | V 1.96 | Q 2.6 | M 1.05 | E 2.19 | G 2.96 | P 2.91 | D 2.84
D10: W 1.22 | P 3.44 | K 3.43 | R 3.89 | T 1.79 | Y 2.24 | G 1.84 | I 3.2 | A 2.41 | H 2.67 | N 2.55 | Q 2.14 | E 3.38 | S 1.34 | L 3.29 | M 2.94
Q18: E 3.22 | F 1.79 | H 1.91 | A 3.26 | D 2.89 | G 3.47 | C 2.52
V14: Y 2.73 | T 3.95 | H 3.94 | K 3.53 | N 4.23 | L 2.78 | W 2.14 | R 3.89 | S 3.49 | G 3.54 | A 3.63 | D 4.33 | I 2.68 | E 4.28 | P 3.96 | F 2.57 | Q 4.25 | C 2.64
E9: I 2.08 | F 2.67 | R 3.02 | T 2.55 | S 2.85 | G 2.16 | Y 2 | L 2.24 | P 3.75 | N 2.85 | M 2.57 | W 1.83 | K 3.55 | V 2.26 | Q 2.99 | H 2.32
S15: V 1.91 | M 1.16 | Q 3.11 | L 1.69 | K 3.19 | E 3.74 | F 1.04 | H 2.71 | I 1.36 | R 3.67 | Y 2.06 | W 2.75 | P 3.15 | T 3.02 | N 3.79 | G 2.92 | D 4.08 | A 3.65 | C 2.82
I13: C 4.75 | S 4.05 | H 3.84 | M 3.97 | D 3.13 | Q 4.01 | R 3.92 | K 3.89 | G 3.61 | E 4.11 | N 3.79 | L 2.79 | P 4.25 | F 3.08 | T 3.56 | A 3.96
E16: G 3.51 | S 2.38 | F 2.08 | N 2.9 | Q 2.9 | P 3.33 | M 3.11 | T 2.2 | C 3.61 | D 3.87 | I 3.35 | H 3.22 | Y 3.77 | A 2.66 | W 1.9 | K 3.42 | L 3.15 | R 3.09 | V 2.58
